The text below walks through data of patent US20090070901.

The data set concerns the target des(methyl) spinach Rubisco (ribulose-1,5-bisphosphate carboxylase-oxygenase holoenzyme) (UniProt P00875).

As for “wild-type pea Rubisco large subunit epsilon-N-methyltransferase (pea Rubisco LSMT)”, the “carboxylase activity at saturating and low CO2” value was “showed no difference in activity between native Rubisco and Rubisco with bound pea Rubisco LSMT alone”.
